# Measurements taken from patent US20250101098A1 (R P SCHERER TECHNOLOGIES, published 2025).
# T1: human nectin-4 protein expressed on the surface of cells (human, UniProt Q96NY8 32-510)
# T1 construct: also called HEK 293 cells overexpressing human nectin-4; HekNectin4
# T1 sequence: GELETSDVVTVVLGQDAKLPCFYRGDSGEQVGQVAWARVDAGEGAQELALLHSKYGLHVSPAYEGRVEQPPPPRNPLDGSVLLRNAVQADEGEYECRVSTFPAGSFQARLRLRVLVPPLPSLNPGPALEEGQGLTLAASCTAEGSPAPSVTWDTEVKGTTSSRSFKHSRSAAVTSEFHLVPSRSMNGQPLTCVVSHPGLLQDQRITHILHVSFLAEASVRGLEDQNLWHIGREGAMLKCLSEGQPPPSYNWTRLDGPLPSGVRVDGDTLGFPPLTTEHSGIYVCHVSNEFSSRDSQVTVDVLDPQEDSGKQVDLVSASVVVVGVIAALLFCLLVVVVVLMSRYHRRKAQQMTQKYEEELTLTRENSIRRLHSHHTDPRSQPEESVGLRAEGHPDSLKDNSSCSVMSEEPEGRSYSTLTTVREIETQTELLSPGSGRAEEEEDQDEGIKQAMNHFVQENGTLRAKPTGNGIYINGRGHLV
# T2: cynomolgus monkey nectin-4 protein expressed on the surface of HEK 293 cells (cynomolgus monkey, UniProt A0A2K5WES1 32-510)
# T2 construct: whole, on cells
# T2 sequence: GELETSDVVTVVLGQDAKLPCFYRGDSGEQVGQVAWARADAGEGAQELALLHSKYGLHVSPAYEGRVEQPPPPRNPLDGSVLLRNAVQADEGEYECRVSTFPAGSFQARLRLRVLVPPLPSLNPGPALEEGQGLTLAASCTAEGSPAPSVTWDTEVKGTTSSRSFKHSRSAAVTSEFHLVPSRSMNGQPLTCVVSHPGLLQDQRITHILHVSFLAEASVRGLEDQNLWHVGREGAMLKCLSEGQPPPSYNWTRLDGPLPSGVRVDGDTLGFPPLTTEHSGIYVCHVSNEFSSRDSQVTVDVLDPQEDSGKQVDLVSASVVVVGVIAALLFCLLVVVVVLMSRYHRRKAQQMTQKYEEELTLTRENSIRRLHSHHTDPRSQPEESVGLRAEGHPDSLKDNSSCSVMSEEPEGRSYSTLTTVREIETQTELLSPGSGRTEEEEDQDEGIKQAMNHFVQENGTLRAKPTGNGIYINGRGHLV
# T3: recombinant human Nectin-4-His protein (human, UniProt Q96NY8 32-349)
# T3 construct: Rescreening antigen and bought ELISA antigen are treated as one molecule; also called human Nectin-4-His tagged; Ag1; not shown: His tag
# T3 sequence: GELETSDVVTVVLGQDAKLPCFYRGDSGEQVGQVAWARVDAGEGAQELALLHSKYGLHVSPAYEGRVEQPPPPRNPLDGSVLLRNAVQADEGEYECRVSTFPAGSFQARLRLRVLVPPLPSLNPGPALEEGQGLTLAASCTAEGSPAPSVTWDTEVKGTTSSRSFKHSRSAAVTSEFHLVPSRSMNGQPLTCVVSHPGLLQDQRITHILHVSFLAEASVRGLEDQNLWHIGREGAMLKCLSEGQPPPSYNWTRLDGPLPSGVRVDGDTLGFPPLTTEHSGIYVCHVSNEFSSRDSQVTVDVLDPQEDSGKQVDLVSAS
# T4: cynomolgus Nectin-4 His tagged (cynomolgus, UniProt A0A2K5WES1 32-349)
# T4 construct: also called Ag2
# T4 sequence: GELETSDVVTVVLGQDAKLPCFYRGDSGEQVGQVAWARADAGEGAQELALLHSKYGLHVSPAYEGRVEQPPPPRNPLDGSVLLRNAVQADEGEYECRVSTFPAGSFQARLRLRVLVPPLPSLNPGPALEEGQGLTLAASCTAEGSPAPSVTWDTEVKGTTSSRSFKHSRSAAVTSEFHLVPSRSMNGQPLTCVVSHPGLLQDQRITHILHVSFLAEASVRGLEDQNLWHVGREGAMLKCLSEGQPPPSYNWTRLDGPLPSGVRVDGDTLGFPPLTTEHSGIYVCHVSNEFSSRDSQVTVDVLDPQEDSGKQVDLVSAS
# T5: rat nectin-4 protein expressed on the surface of HEK 293 cells (rat, UniProt D3ZET1 31-509)
# T5 construct: whole, on cells
# T5 sequence: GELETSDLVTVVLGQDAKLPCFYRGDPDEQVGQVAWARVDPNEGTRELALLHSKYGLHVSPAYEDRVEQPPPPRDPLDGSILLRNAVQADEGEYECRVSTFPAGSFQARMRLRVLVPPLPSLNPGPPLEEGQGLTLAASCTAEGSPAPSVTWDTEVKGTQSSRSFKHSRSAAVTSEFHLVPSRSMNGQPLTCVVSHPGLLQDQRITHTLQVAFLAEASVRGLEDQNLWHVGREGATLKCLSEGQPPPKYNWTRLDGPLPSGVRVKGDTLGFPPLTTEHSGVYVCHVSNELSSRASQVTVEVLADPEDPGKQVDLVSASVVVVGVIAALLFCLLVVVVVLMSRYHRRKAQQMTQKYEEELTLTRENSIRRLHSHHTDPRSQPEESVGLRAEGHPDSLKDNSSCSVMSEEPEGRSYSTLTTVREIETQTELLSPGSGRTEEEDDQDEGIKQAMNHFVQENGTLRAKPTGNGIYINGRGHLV
# T6: mouse nectin-4 protein expressed on the surface of HEK 293 cells (mouse, UniProt Q8R007 31-508)
# T6 construct: whole, on cells
# T6 sequence (looked up): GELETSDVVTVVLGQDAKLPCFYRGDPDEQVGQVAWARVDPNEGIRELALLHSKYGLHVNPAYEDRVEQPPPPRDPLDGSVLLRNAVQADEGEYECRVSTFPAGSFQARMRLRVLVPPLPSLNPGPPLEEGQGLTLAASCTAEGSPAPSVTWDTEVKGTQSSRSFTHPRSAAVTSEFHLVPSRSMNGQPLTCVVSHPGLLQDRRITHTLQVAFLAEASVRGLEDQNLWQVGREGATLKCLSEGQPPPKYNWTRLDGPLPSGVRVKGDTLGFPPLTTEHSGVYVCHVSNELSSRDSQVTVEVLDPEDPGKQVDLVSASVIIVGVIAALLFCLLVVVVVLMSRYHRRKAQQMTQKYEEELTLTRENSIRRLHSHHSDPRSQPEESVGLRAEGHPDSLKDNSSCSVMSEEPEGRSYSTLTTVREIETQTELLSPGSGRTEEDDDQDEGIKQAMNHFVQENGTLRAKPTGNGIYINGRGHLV
# Assays:
# [1] = target: T1, human nectin-4 protein expressed on the …; test: flow cytometry, HEK 293 cells overexpressing the target
# Method: (§1) Human embryonic kidney (HEK) 293 cells overexpressing human, cynomolgus monkey, rat, or mouse nectin-4 protein were produced. Cells were lifted with Versene to preserve cell surface proteins and were resuspended at 10e6/mL in PBS+2% FBS. 100 μl was added to a flow tube to test […]. Primary antibodies were diluted to […] and 10 μL was added for a total of 1 μg/test. Primary antibodies (or ADCs) were incubated with cells for 1 h on ice. Then, cells were washed 1× in 2 mL PBS+2% FBS and secondary antibody was added for detection. AF488-conjugated anti-human antibody from Jackson Immunoresearch, diluted according to the manufacturer's instructions+50% glycerol, was used at 1 μL/test-diluted to ⅕ the concentration in PBS+2% FBS and 5 μL were added per tube. The secondary reagent was incubated with the cells for 30 min, then cells were washed 2× in PBS+2% FBS and analyzed by flow cytometry on a BD FacsCanto instrument equipped with FACSDiva software.
# (§2) Lead clones were tested for binding to human, cynomolgus monkey, rat, or mouse nectin-4 protein expressed on the surface of HEK 293 cells. Enfortumab was included as a positive control and an anti-FITC reactive antibody was included as a negative control.
# [2] = target: T2, cynomolgus monkey nectin-4 protein …; test: as above
# Method: as §1, §2
# [3] = target: T3, recombinant human Nectin-4-His protein; test: ELISA, recombinant antibody on coated antigen
# [4] = target: T1, human nectin-4 protein expressed on the …; test: cell-based or functional assay
# [5] = target: T3, recombinant human Nectin-4-His protein; test: ELISA, hybridoma supernatant
# [6] = target: T4, cynomolgus Nectin-4 His tagged; test: ELISA, hybridoma supernatant
# [7] = target: T5, rat nectin-4 protein expressed on the …; test: flow cytometry, HEK 293 cells overexpressing the target
# Method: as §1, §2
# [8] = target: T6, mouse nectin-4 protein expressed on the …; test: as above
# Method: as §1, §2
ELISA signal [5],ELISA signal [6],Binder,also measured
,,"Nectin-4 7H10H/7H10L (recombinant chimeric antibody) (antibody, V domains shown) VH: QVQLQQPGAELVKPGASVKLSCKASGYTFTTYWMHWVKQRPGRGLEWIGGIDPYGAHIKYNEMFKTKATLTVDKPSSTAYMQLSSLTSEDSAVYYCARGDYSNWWWTYWGQGTLVTVSA VL: DIVMTQSQKFMSTTVGDRVSITCKASQNVGTAVAWYQQIPGQSPKLLIYSASNRYTGVPDRFTGSGSGTDFTLTITNMQSEDLADYFCQHYSSYPWTFGGGTKLEIK","Flow data [1]: 12300; Flow data [2]: 14100; EC50 [3]: 0.21 nM; IC50, in vitro potency, HEK Cells + Nectin-4 [4]: 0.549 nM"
3.26,3.49,"Nectin-4 7H10H/7H10L (hybridoma supernatant) (antibody, V domains shown, Mouse antibody in hybridoma supernatant) VH: QVQLQQPGAELVKPGASVKLSCKASGYTFTTYWMHWVKQRPGRGLEWIGGIDPYGAHIKYNEMFKTKATLTVDKPSSTAYMQLSSLTSEDSAVYYCARGDYSNWWWTYWGQGTLVTVSA VL: DIVMTQSQKFMSTTVGDRVSITCKASQNVGTAVAWYQQIPGQSPKLLIYSASNRYTGVPDRFTGSGSGTDFTLTITNMQSEDLADYFCQHYSSYPWTFGGGTKLEIK",
3.08,3.32,"Nectin-4 5D9H/5D9L (hybridoma supernatant) (antibody, V domains shown, Mouse antibody in hybridoma supernatant) VH: QVQLKQSGPGLVQPSQSLSITCTVSGFSLTNYGVHWVRQSPGKGLEWLGVIWSGGSTDYNAAFVSRLSISRDNSKSQVFFKMNSLQADDTAIYYCARSGKWYYFDYWGQGTTLTVSS VL: DIQMTQSPASLSVSVGETVTITCRASENIYSNLAWYQQKQGKSPQLLVYAATNLADGVPSRFSGSGSGTQYSLKINSLQSEDFGSYYCQHFWGTPTFGGGTKLEIK",
,,"Nectin-4 Hybridoma 6C8H/6C8L (recombinant chimeric antibody) (antibody, V domains shown) VH: QVQLKQSGPGLVQPSQSLSITCTVSGFSLSTYGVHWVRQSPGKGLEWLGVIWSGGSTDYNAAFISRLTISKDNSKSQIFFKMNSLQADDTAIYYCARMMSWYFDVWGTGTTVTVSS VL: DIVMTQSQKFMSTSVGDRVSVTCKASQNVVTNVAWYQQKPGQSPKALIYSASYRYSGVPDRFTGSGSGTDFTLTISNVQSEDLAEYFCQQYNSYPLTFGAGTKLELK","Flow data [1]: 10200; Flow data [7]: 8920; Flow data [8]: 194; Flow data [2]: 11400; EC50 [3]: 0.239 nM; IC50, in vitro potency, HEK Cells + Nectin-4 [4]: 0.573 nM"
3.16,3.4,"Nectin-4 Hybridoma 6C8H/6C8L (hybridoma supernatant) (antibody, V domains shown, Mouse antibody in hybridoma supernatant) VH: QVQLKQSGPGLVQPSQSLSITCTVSGFSLSTYGVHWVRQSPGKGLEWLGVIWSGGSTDYNAAFISRLTISKDNSKSQIFFKMNSLQADDTAIYYCARMMSWYFDVWGTGTTVTVSS VL: DIVMTQSQKFMSTSVGDRVSVTCKASQNVVTNVAWYQQKPGQSPKALIYSASYRYSGVPDRFTGSGSGTDFTLTISNVQSEDLAEYFCQQYNSYPLTFGAGTKLELK",
3.21,3.44,"Nectin-4 12E11H/12E11L (hybridoma supernatant) (antibody, V domains shown, Mouse antibody in hybridoma supernatant) VH: QVQLKQSGPGLVQPSQSLSITCTVSGFSLTTYGVHWVRQSPGKGLEWLGVIWSGGSTDCNGAFISRLSIIKDNSKSQVFFKMNSLQADDTAIYYCARMTHWYFDVWGTGTTVTVSS VL: DIVMTQSQKFMSTTVGDRVSITCKASQNVNTAVAWYQQKPGQSPKLLIYSASYRYTGVPDRFTGSGSGTDFTLTISNMQSEDLADYFCQQYSNYPLTFGAGTKLELK",
3.2,3.45,"Nectin-4 3C12H/3C12L (hybridoma supernatant) (antibody, V domains shown, Mouse antibody in hybridoma supernatant) VH: QVQLKQSGPGLVQPSQSLSITCTVSGFSLTTYGVHWVRQSPGKGLEWLGVIWSGGNTDYNAAFISRLSISKDNSKSQVFFKMNSLQADDTAIYYCARMTHWYFDVWGTGTTVTVSS VL: DIVMTQSQKFMSTTVGDRVSITCKASQNVVTAVAWYQQKPGQSPKLLIYSASNRYTGVPDRFTGSGSGTDFTLTISYMQSEDLADYFCQQYSSYPLTFGAGTKLELK",
3.11,3.44,"Nectin-4 7 E8H/7 E8L (hybridoma supernatant) (antibody, V domains shown, Mouse antibody in hybridoma supernatant) VH: QVQLKQSGPGLVQPSQSLSITCTVSGFSLATYGVHWVRQSPGKGLEWLGVIWSGGSTDYNAAFISRLSISKDNSKSQVFFKMNSLQADDTAIYYCARNSHWYFDVWGTGTTVTVSS VL: DIVMTQSQKFMSTSVGDRVSVTCKASQNVVTNVAWYQQKPGQSPKALIYSASYRYSGVPDRFTGSGSGTDFTLTISHVQSEDLAEYFCHQYNNYPYTFGGGTKLEIK",
